In experiment [1] the target is T1, Avi/His-HuIL18BPa (recombinant human IL-18BP isoform A with Avi and poly-His tags) (human, biotinylated with BirA on the Avi tag in some assays).
T1 construct: also called human IL-18BP-Avi-His
T1 chain: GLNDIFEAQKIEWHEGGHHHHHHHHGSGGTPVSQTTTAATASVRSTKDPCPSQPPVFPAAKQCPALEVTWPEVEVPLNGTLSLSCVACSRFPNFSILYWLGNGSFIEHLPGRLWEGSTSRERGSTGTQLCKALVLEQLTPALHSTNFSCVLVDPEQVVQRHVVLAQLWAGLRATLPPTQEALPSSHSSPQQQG
Put plainly: ELISA, coated IL-18BP.

Experiment [2] has as its target T2, His/Avi-CynoIL18BP (recombinant cynomolgus IL-18BP with His and Avi tags) (cynomolgus monkey).
T2 construct: also called cynomolgus IL-18BP-Avi-His
T2 chain: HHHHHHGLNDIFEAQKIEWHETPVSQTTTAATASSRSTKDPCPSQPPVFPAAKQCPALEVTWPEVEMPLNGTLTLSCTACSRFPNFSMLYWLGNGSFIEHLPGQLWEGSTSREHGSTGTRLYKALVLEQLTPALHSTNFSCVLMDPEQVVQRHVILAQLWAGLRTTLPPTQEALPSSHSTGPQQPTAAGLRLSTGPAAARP
Nature of the experiment: ELISA, coated IL-18BP. (ELISA stands for enzyme-linked immunosorbent assay.)

The target in experiment [3] is T3, Avi/HisMsIL18BPd (recombinant mouse IL-18BP with Avi and poly-His tags) (mouse, biotinylated with BirA on the Avi tag in some assays).
T3 construct: also called murine IL-18BP; IL-18BP-Avi-His (mouse)
T3 chain: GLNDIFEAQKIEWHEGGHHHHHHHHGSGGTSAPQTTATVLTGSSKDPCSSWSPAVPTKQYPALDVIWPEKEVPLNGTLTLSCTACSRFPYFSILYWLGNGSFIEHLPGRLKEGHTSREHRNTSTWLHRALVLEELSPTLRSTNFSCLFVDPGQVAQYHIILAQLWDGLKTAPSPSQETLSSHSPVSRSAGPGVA
Put plainly: ELISA, coated IL-18BP.

Experiment [4] concerns the target T1, Avi/His-HuIL18BPa (recombinant human …). Nature of the experiment: SPR Carterra LSA, IgG immobilized.
The target of experiment [5] is T2, His/Avi-CynoIL18BP (recombinant …). Nature of the experiment: SPR Carterra LSA, IgG immobilized.
Experiment [6] addresses T1, Avi/His-HuIL18BPa (recombinant human …). Put plainly: cell-based or functional assay.
Experiment [7] has as its target T3, Avi/HisMsIL18BPd (recombinant mouse …). Put plainly: cell-based or functional assay.
In experiment [8] the target is T2, His/Avi-CynoIL18BP (recombinant …). Nature of the experiment: blocking ELISA, competitor rhesus IL-18.
Experiment [9] has the same target. Nature of the experiment: cell-based or functional assay.
Experiment [10] has as its target T4, mouse IL-18BPd-human IgG Fc (R&D Systems, Cat. #122-BP-100) (mouse; human, UniProt Q9Z0M9 29-193).
T4 construct: Bought; also called mouse IL-18BPd-Fc Chimera
T4 sequence (looked up): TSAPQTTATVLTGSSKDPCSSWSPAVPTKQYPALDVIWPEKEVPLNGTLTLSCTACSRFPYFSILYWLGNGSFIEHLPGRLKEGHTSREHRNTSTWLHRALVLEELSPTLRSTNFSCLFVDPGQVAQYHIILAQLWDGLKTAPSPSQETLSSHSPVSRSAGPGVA
Nature of the experiment: blocking ELISA, competitor mouse IL-18.

The target of experiment [11] is T1, Avi/His-HuIL18BPa (recombinant human …). Put plainly: blocking ELISA, competitor human IL-18.
The target is the same in experiment [12]. Put plainly: cell-based or functional assay.
The target of experiment [13] is T3, Avi/HisMsIL18BPd (recombinant mouse …). Nature of the experiment: cell-based or functional assay.
Experiment [14] has as its target T1, Avi/His-HuIL18BPa (recombinant human …). Nature of the experiment: SPR Biacore T200, IgG captured on Protein A/G. (In general: Surface plasmon resonance follows binding to a sensor surface in real time, without labels.)
Experiment [15] has as its target T2, His/Avi-CynoIL18BP (recombinant …). Nature of the experiment: SPR Biacore T200, IgG captured on Protein A/G.

The source of these data is patent US20250333523A1 (Alector, published 2025).

Several values for one entry are separate records, joined by “and”; a condition that tells them apart may be missing. Equal values may be shown once. Read-outs that look alike come from different tables or passages of the source.

B1: anti-IL18BP antibody BP-12 (antibody, human IgG1, V domains shown)
VH: EVQLQQSGPELVKPGASVKMSCKTSGYTFTEYTMHWVKQSHGKSLEWIGGVNPNNGGTTYNQKFRDKATLTVDKSSSTTYMEVRTLTSDDSAVYYCAPLWRVFDYWGQGTTLTVSS
VL: DIVMTQSHKFMSSSVGDRVSITCKASQDVGTAVAWYQQKPGQSPKLLIYWASTRHTGVPDRFTGSGSGTDFTLTISNVQSEDLADYFCHQFSRYPLTFGAGTKLELK
B1: the results for the “ELISA binding ratio (fold-change over background)” value in [1], in experiment [2] and in experiment [3] were 43.2 fold over background, 44 fold over background and 34.2 fold over background, respectively. The Kd (usually the equilibrium constant for the complex coming apart) was determined as 7.6 nM in experiment [4] and 0.5 nM in [5]. In addition, the “EC50 of IFNγ release, human PBMC” value in experiment [6] was found to be 6.09 nM. Besides, in experiment [6], the “Fold change of IFNγ at 10 µg/ml vs baseline, human PBMC” value (shortened to “Fold change of IFNγ … human PBMC”) worked out at 10.3 fold. In [7], the “EC50 of IFNγ release, mouse splenocytes” value was 15.7 nM. In addition, the “Fold change of IFNγ at 10 µg/ml vs baseline, mouse splenocytes” value (“Fold change of IFNγ … mouse splenocytes” below) in experiment [7] came out at 1.88 fold. Also, the “blocking ELISA signal normalized to isotype control (=1)” value (“blocking ELISA signal normalized” for short) in experiment [8] was 0.36 ratio to isotype control; in experiment [10], 0.351 ratio to isotype control; in experiment [11], 0.117 ratio to isotype control. Besides, the “% of Max Gamma, human NK cells” value in experiment [9] was found to be 76.5%. In addition, the “EC50 of IFNγ release, human NK cells” value in [9] was determined as 70 nM.

B2: anti-IL18BP antibody BP-03 (antibody, human IgG1, V domains shown)
VH: EVQLQQSGPELVKPGASVKIPCKASGYTFTDYNMDWVKQSHGKSLEWIGNINTDNGGTVYNQKFKGKATLTVDQSSSTAYMELRSLTSEDTAVYYCARSDTTVVASRYYAMDYWGQGTSVTVSS
VL: DIVLTQSPASLAMSLGKRATISCRASESVSIIGTNLIHWYQQKPGQPPKLLIYHASNLETGVPARFSGSGSRTDFTLTIDPVEEDDVAIYYCLQSRKIPPTFGGGTKLEIK
Consider B2, for which the “ELISA binding ratio (fold-change over background)” value amounted to 41.9 fold over background in [1], 36.5 fold over background in [2] and 41.6 fold over background in experiment [3]. The Kd was 4.1 nM in experiment [4] and 2.34 nM in experiment [5]. Besides, the “EC50 of IFNγ release, human PBMC” value in experiment [6] stood at 1.14 nM. Moreover, the “Fold change of IFNγ … human PBMC” value in [6] worked out at 11.3 fold. In addition, the “EC50 of IFNγ release, mouse splenocytes” value in [7] was determined as 4.49 nM. Moreover, the “Fold change of IFNγ … mouse splenocytes” value in experiment [7] came to 5.93 fold. Also, the “blocking ELISA signal normalized” value is 0.996 ratio to isotype control in experiment [8], 0.157 ratio to isotype control in [10] and 0.151 ratio to isotype control in experiment [11].

B3: anti-IL18BP antibody BP-13 (antibody, human IgG1, V domains shown)
VH: QVQLQQSGAELVRPGASVTLSCKASGYTFTDYEMHWVKQTPVHGLEWIGPIDPETGDTAYNQKFKGQATLTADKSSSTAYMELSSLTSEDSAVYYCTRGSRGVFDYWGQGTALTVSS
VL: DIVMTQSHKFMSTSVGDRVSITCKASQDVGTAVAWYQQKPGQSPKLLIYWASARHTGVPDRFTGSGSGTDFTLTISNVQSEDLADYFCQHYFNFPRTFGGGTKLEIT
In the case of B3, the “ELISA binding ratio (fold-change over background)” value is 44.7 fold over background in experiment [1], 49 fold over background in [2] and 16.9 fold over background in experiment [3]. The Kd came out at 7.2 nM in experiment [4] and 0.3 nM in experiment [5]. In addition, the “EC50 of IFNγ release, human PBMC” value in experiment [6] is 3.89 nM. Besides, the “Fold change of IFNγ … human PBMC” value in [6] came out at 11.8 fold. Also, in experiment [7], the “EC50 of IFNγ release, mouse splenocytes” value stood at 640 nM. Also, the “Fold change of IFNγ … mouse splenocytes” value in experiment [7] stood at 1.74 fold. Further, the “blocking ELISA signal normalized” value is 0.331 ratio to isotype control in [8], 0.53 ratio to isotype control in experiment [10] and 0.128 ratio to isotype control in [11]. Further, the “% of Max Gamma, human NK cells” value in experiment [9] stood at 54.1%. In experiment [9], the “EC50 of IFNγ release, human NK cells” value turned out to be 39.7 nM.

B4: anti-IL18BP antibody BP-10 (antibody, human IgG1, V domains shown)
VH: QVQLQQPGAERVEPGASVRLSCKTSGYTFTNYWMHWVKQRPGQGLEWIGMIHPESGSTNNNEKFKSKATLTVDKSSSTAYMQLSSLTSEDSAVYYCARWDRGYFDYWGQGTTLTVSS
VL: DIVMTQSHKFMSTSVGDRVSITCKASQDVRSTVGWYQQRPGQSPKLLIYWTSTRHTGVPDRFTGSGSGTDYTLTISSVQAEDLALYYCQQHYSTPYTFGGGTTLEIK
With B4, the figures for the “ELISA binding ratio (fold-change over background)” value in [1], in experiment [2] and in experiment [3] were 42.1 fold over background, 48.1 fold over background and 40.8 fold over background, respectively. Moreover, the Kd in [4] came out at 1 nM; in [5], 0.02 nM. The “EC50 of IFNγ release, human PBMC” value in [6] stood at 2.05 nM. In experiment [6], the “Fold change of IFNγ … human PBMC” value came out at 15.5 fold. Further, in [7], the “EC50 of IFNγ release, mouse splenocytes” value is 538 nM. Further, the “Fold change of IFNγ … mouse splenocytes” value in experiment [7] is 2.85 fold. Further, the “blocking ELISA signal normalized” value was 0.28 ratio to isotype control in [8], 0.326 ratio to isotype control in [10] and 0.067 ratio to isotype control in experiment [11]. Further, in experiment [9], the “% of Max Gamma, human NK cells” value came out at 55.2%. The “EC50 of IFNγ release, human NK cells” value in experiment [9] is 6 nM.

B5: anti-IL18BP antibody BP-04 (antibody, V domains shown)
VH: HVHLHQSGAELVRPGVSVKISCRGSGYTFTDYDVHWVKQSHAKSLEWIGVISTYYGDVGYNQEFKGKATMTLDKSSSTSYLELARLTSEDSAIYYCARSGTYYYGTRESHALDYWGQGTSVTVSS
VL: DIQMTQSPASLSVSVGETVTITCRTSDNVYSNLAWYQQKQGKSPQLLVYGAINLADGVPSRFSGSGSDTQYSLKINNLQSEDFGSYYCQHFWGNPYTFGGGTKLEIK
notes: also called BP-04 (hybridoma); BP-04 (parental)
As to B5, the “ELISA binding ratio (fold-change over background)” value in [1] was found to be 39.7 fold over background; in experiment [2], 45.2 fold over background; in experiment [3], 39.1 fold over background. Also, the Kd in experiment [4] was 0.8 nM; in experiment [5], 3 nM; in [14], 1 nM and 1.1 nM; in [15], 7.3 nM and 8.5 nM. In [6], the “EC50 of IFNγ release, human PBMC” value was 0.67 nM. In experiment [6], the “Fold change of IFNγ … human PBMC” value came out at 19 fold. Besides, the “EC50 of IFNγ release, mouse splenocytes” value in [7] came out at 4.29 nM; in experiment [13] it was 14.9 nM. Besides, the “Fold change of IFNγ … mouse splenocytes” value in [7] stood at 2.74 fold. Further, the “EC50 of IFNγ release, human PBMCs” value in experiment [12] came to 15.7 nM. Besides, the entries for the “blocking ELISA signal normalized” value in experiment [8], in [10] and in experiment [11] were 0.943 ratio to isotype control, 0.122 ratio to isotype control and 0.165 ratio to isotype control, respectively. Moreover, the “% of Max Gamma, human NK cells” value in experiment [9] was 25.9%. The “EC50 of IFNγ release, human NK cells” value in experiment [9] was determined as 2.41 nM. Besides, the koff (in general, the first-order rate constant of dissociation) is 0.00059 s⁻¹ and 0.00062 s⁻¹ in experiment [14]; 0.0032 s⁻¹ and 0.0033 s⁻¹ in [15]. Besides, the kon (in general, the second-order rate constant of association) in [14] is 580000 M⁻¹ s⁻¹; in [15], 440000 M⁻¹ s⁻¹ and 390000 M⁻¹ s⁻¹.
